This is an account of results in article PMC2198949 (The Journal of Experimental Medicine, 1997).

By Kd is commonly meant a measure of binding affinity in units of concentration. For orientation: koff means a measure of how fast the partners let go of each other. A higher koff goes with a short-lived complex. In general, kon refers to the second-order rate constant of association.

This experiment has as its target T1, murine 4-1BBL–CD8 fusion protein (mouse, UniProt P41274 104-309).
T1 sequence (looked up): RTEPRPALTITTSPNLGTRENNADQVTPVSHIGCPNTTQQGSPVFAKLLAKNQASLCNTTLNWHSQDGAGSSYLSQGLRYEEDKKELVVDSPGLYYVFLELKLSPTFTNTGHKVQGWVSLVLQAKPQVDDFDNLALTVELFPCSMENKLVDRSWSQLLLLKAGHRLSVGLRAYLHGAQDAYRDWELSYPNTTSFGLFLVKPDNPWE
In words: SPR. A general note: Surface plasmon resonance follows binding to a sensor surface in real time, without labels.

B1: murine 4-1BB–Ig fusion protein (Fc fusion, mouse, UniProt P20334 22-185, looked up)
chain: GAVQNSCDNCQPGTFCRKYNPVCKSCPPSTFSSIGGQPNCNICRVCAGYFRFKKFCSSTHNAECECIEGFHCLGPQCTRCEKDCRPGQELTKQGCKTCSLGTFNDQNGTGVCRPWTNCSLDGRSVLKTGTTEKDVVCGPPVVSFSPSTTISVTPEGGPGGHSLQ
Molecule B1 displayed a Kd of 1.16 nM, a koff of 0.000213 s⁻¹ and a kon of 183000 M⁻¹ s⁻¹.
